From article PMC7013354, “Selection and Characterization of CSFV-Specific Single-Domain Antibodies and Their Application along with Immunomagnetic Nanobeads and Quantum Dots” (BioMed Research International, 2020) come the findings set out here.

Conditions in all cases: one partner purified
In test [1] the target is T1, E2 of CSFV in infected ST cells and on CSFV virions (Classical swine fever virus, C-strain, UniProt Q96891, strain).
T1 construct: also called E2 of CSFV in ST cells
Put plainly: pull-down.

Test [2] concerns the target T1, E2 of CSFV in infected ST cells and on …. Put plainly: immunostaining of cells or tissue.
The target is the same in test [3]. Nature of the test: far-Western, overlay or dot blot.

B1: recombinant sdAbE2-1 (VHH)
VHH: QVQLLESGGGLVQPGGSLRLSCAASGYSFIDKTMAWVRQAPGKGLEWVSAIRMHNGSTYYADSVKGRFTISRDNSKNTLYLQMNSLRAEDTAVYYCARLSRRIQAKDKAKLKYWGQGTLVTVSS
notes: also called sdAdE2-1; sdAbE2s
Take B1: the binding result in test [1] is recorded as “binds”.

B2: QD-sdAbE2-1 probe (VHH)
VHH: QVQLLESGGGLVQPGGSLRLSCAASGYSFIDKTMAWVRQAPGKGLEWVSAIRMHNGSTYYADSVKGRFTISRDNSKNTLYLQMNSLRAEDTAVYYCARLSRRIQAKDKAKLKYWGQGTLVTVSS
notes: also called QD605-labeled sdAbE2-1; QDs-sdAbE2-1
On to B2, for which, in test [2], the binding result was “binds”.

B3: AF488-sdAbE2-2 probe (VHH)
VHH: DVQLVESGGGLVQAGGSLRLSCTASGFTFDDYAMAWFRQPPGKEREGVSCISSSGGSTWYADSVKGRFTVSRDNAKNTLYLQMNSLKPEDTAMYYCAADWGRLCVVRGPRNEYKYSGQGTQVTVSS
notes: also called AF488-labeled sdAbE2-2
Consider B3, for which, in test [2], the binding result is “binds”.

B4: recombinant sdAbE2-2 (VHH)
VHH: DVQLVESGGGLVQAGGSLRLSCTASGFTFDDYAMAWFRQPPGKEREGVSCISSSGGSTWYADSVKGRFTVSRDNAKNTLYLQMNSLKPEDTAMYYCAADWGRLCVVRGPRNEYKYSGQGTQVTVSS
notes: also called sdAdE2-2; sdAbE2s
For the molecule B4, the binding result in test [3] is “binds”.
